Reference: patent US20230048553A1 (AbbVie / Abbott, published 2023)
Numbering of substitutions follows the chain as printed.

Experiments:
[1] = biological target: T1, cynomolgus CCR8 (cynomolgus monkey, UniProt G7NYJ2 1-355); test: cell-based or functional assay
[2] = biological target: T2, human CCR8 (chemokine receptor 8) (human, UniProt P51685 1-355); test: cell-based or functional assay
[3] = biological target: T1, cynomolgus CCR8; test: flow cytometry on cyCCR8 Jurkat cells
Description: (§1) The candidate molecules were assessed for binding capacity using flow cytometry through known methods against overexpressed huCCR8 or cyCCR8 on the surface of Jurkat cells. The exemplary antibodies were tested for their ability to self-interact, bind to huCCR8 and cyCCR8, capacity for ADCC using the reporter bioassay, and non-specific binding to HEK293 cells. […] The AC-SINS self-interaction scores for each candidate was <1. At 100 μg/mL, non-specific binding maximums ranged from 97 to 144 GMFI. At 10 μg/mL, non-specific binding maximums ranged from 94-111 GFMI. At 1 μg/mL, non-specific binding maximums ranged from 87-102 GMFI.

[4] = biological target: T2, human CCR8 (chemokine receptor 8); test: flow cytometry on huCCR8 Jurkat cells
Description: as §1

[5] = biological target: T3, rat CCR8 (rat, UniProt D4ADE0 1-353); test: not told
T3 sequence: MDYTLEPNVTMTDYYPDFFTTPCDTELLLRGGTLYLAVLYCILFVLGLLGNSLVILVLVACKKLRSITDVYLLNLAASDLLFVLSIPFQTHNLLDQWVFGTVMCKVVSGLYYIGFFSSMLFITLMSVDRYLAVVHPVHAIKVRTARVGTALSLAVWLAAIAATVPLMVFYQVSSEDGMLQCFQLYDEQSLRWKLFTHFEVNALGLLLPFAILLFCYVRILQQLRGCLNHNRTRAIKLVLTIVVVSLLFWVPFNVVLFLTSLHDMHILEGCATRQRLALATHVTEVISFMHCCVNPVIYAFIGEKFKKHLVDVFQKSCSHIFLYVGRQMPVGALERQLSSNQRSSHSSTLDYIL

[6] = biological target: T4, rabbit CCR8 (rabbit, UniProt G1T2B2 1-355); test: not told
T4 sequence: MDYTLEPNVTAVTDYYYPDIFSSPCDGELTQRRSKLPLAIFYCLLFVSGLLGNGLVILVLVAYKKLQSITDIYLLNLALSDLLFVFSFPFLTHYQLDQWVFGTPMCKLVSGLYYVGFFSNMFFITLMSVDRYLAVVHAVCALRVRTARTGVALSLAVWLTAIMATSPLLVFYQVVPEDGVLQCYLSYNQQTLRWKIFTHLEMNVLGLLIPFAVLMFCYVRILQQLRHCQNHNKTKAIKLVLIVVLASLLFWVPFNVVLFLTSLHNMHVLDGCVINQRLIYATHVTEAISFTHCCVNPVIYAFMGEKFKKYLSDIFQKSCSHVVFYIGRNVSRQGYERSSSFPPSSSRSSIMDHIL

[7] = biological target: T5, mouse CCR8 (mouse, UniProt P56484 1-353, limits assumed); test: not told
T5 sequence (looked up): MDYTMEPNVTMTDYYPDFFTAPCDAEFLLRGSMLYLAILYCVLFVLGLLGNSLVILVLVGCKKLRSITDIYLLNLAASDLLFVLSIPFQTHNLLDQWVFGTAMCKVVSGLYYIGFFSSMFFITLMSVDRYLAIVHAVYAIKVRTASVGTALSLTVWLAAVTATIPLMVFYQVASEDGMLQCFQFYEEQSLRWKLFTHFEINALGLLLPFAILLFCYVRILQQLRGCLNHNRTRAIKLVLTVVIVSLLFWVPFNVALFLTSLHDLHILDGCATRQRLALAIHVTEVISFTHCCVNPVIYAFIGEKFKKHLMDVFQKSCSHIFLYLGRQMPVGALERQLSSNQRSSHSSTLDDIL

[8] = biological target: T2, human CCR8 (chemokine receptor 8); test: cell-based or functional assay; remark: listed apart in the source

T2 sequence (P51685 whole entry): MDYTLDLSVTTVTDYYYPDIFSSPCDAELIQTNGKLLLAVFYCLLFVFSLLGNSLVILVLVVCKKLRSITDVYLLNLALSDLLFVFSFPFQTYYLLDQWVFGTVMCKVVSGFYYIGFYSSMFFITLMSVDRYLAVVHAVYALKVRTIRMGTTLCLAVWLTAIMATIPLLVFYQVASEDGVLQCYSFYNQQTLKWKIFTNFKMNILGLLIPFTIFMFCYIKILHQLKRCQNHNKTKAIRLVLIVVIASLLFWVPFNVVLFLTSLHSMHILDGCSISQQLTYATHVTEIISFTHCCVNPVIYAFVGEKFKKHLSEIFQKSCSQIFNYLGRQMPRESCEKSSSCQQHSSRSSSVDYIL
T1 sequence (G7NYJ2 entry or part of it): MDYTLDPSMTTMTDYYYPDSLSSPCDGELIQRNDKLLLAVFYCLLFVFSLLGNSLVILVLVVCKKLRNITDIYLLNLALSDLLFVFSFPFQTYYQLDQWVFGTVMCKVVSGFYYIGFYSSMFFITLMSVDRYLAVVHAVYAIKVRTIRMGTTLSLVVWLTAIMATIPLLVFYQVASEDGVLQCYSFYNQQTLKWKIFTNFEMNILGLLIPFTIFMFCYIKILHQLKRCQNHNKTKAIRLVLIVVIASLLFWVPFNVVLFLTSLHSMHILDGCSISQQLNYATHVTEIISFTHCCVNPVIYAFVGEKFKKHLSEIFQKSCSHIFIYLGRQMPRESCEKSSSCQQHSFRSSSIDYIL

B1: AC-264700 (antibody, V domains shown)
VH: EVQLVESGGGLVQPGGSLKLSCAASGFIFSNAVMYWVRQASGKGLEWVARIKTKFNNYATYYADSVKGRFTISRDDSKNMVYLQMNSLKTEDTAVYYCTAGDRNKPFAYWGQGTLVTVSS
VL: ETVVTQSPATLSLSPGERATLSCRASDSVITLLHWFQQKPGQAPRLLIHGASNLESRVPARFSGSGSGTDFTLTISSLEPEDFATYFCQQSWNDPYTFGQGTKLEIKR
Question: What does the source list for B1?
Answer: ADCC reporter cyCCR8 EC50 [1]: 0.79 nM; ADCC reporter cyCCR8 Max Fold Induction [1]: 12 fold; ADCC reporter huCCR8 EC50 [2]: 0.12 nM; ADCC reporter huCCR8 Max Fold Induction [2]: 12.8 fold; EC50 [3]: 5.27 nM; EC50 [4]: 2.33 nM

B2: AC-277483 (antibody, V domains shown)
VH: B1 VH with S65A
VL: B1 VL with S28A
Question: For B2, which “ADCC reporter cyCCR8 EC50” value [1] is on record?
Answer: 1.19 nM

Question: And the “ADCC reporter cyCCR8 Max Fold Induction” value [1]?
Answer: 10 fold

Question: What about the “ADCC reporter huCCR8 EC50” value [2] of the same binder?
Answer: 0.07 nM

Question: And the “ADCC reporter huCCR8 Max Fold Induction” value [2]?
Answer: 13.6 fold

Question: What about the EC50 [3] of the same binder?
Answer: 5.93 nM

Question: And the EC50 [4]?
Answer: 2.9 nM

B3: AC-277371 (antibody, V domains shown)
VH: B1 VH with S65A
VL: B1 VL with D27G
Question: Which “ADCC reporter cyCCR8 EC50” value [1] does the source give for B3 here?
Answer: 0.57 nM

Question: What about the “ADCC reporter cyCCR8 Max Fold Induction” value [1] of the same binder?
Answer: 11.7 fold

Question: What about the “ADCC reporter huCCR8 EC50” value [2] of the same binder?
Answer: 0.05 nM

Question: And the “ADCC reporter huCCR8 Max Fold Induction” value [2]?
Answer: 12.7 fold

Question: And the EC50 [3]?
Answer: 4.83 nM

Question: What about the EC50 [4] of the same binder?
Answer: 1.87 nM

B4: AC-277357 (fucosylated) (antibody, human IgG1, kappa, V domains shown)
VH: B1 VH with S65A
VL: B1 VL with D27T
notes: AC-264700 with LCDR1 D27→T. Human IgG1 kappa
Question: What does the source list for B4?
Answer: ADCC reporter cyCCR8 EC50 [1]: 0.75 nM; ADCC reporter cyCCR8 Max Fold Induction [1]: 12.3 fold; ADCC reporter huCCR8 EC50 [2]: 0.1 nM; ADCC reporter huCCR8 Max Fold Induction [2]: 15.7 fold; EC50 [3]: 2.37 nM; EC50 [4]: 1.51 nM

B5: ABBV-514 (antibody, human IgG1, kappa, V domains shown)
VH: B1 VH with S65A
VL: B1 VL with D27T
modifications: afucosylated N-glycan at ASN-300 (EU: ASN-297)
notes: Afucosylated humanized IgG1 kappa made in cells expressing Pseudomonas RMD
Question: Does B5 bind [5]?
Answer: no binding

Question: Does B5 bind [6]?
Answer: no binding

Question: Does B5 bind [7]?
Answer: no binding

Question: And the “EC50 of CCL1 blockade (CCR8 beta-arrestin reporter assay)” value [8]?
Answer: 23.1 µg/mL
